# Source: article PMC10843481 (Structure (London, England : 1993), 2023)
# Columns and labels:
# [1] = molecular target: 1TEL-GG-UBA as run in size exclusion chromatography with ubiquitin (human) (UniProt P41212); experiment: SEC
# [2] = molecular target: the molecule itself; experiment: crystal structure
Molecule,percent binding [1],binding result [2]
"1TEL-GSGG-UBA (other, human) IRLPAHLRLQPIYWSRDDVAQWLKWAENEFSLSPIDSNTFEMNGKALLLLTKEDFRYRSPHSGDELYELLQHILGSGGELQRKIMEVELSVHGVTHQEAQTALGATGGDVVSAIRNLKVDQLFHLSSRSRADAWRILEHYQWDLSAASRYVLARP",–,binds
"1TEL-GG-UBA (other, human) IRLPAHLRLQPIYWSRDDVAQWLKWAENEFSLSPIDSNTFEMNGKALLLLTKEDFRYRSPHSGDELYELLQHILGGELQRKIMEVELSVHGVTHQEAQTALGATGGDVVSAIRNLKVDQLFHLSSRSRADAWRILEHYQWDLSAASRYVLARP",–,binds

# Second part, led by results:
percent binding [1],Molecule,binding result [2]
100%,M1-linked-di-ubiquitin (from UniProt P0CG47 1-76; P0CG47 1-76) (natural protein),–
100%,M1-linked-tetra-ubiquitin (from UniProt P0CG47 1-76; P0CG47 1-76; P0CG47 1-76; P0CG47 1-76) (natural protein),–
100%,M1-linked-tri-ubiquitin (from UniProt P0CG47 1-76; P0CG47 1-76; P0CG47 1-76) (natural protein),–
